What was measured:
[1] = target: HSPG2 (perlecan) on cells (human, UniProt P98160 22-4391); assay: apparent KD, flow cytometry titration on tumor cells
[2] = target: T1, Recombinant HSPG2 domain 1 (first 247 amino acids of human HSPG2, C-terminal His tag) (human, UniProt P98160 22-247); assay: biolayer interferometry (BLItz), HSPG2 domain 1 on Ni-NTA biosensor
T1 construct: range 1-247; The stated range counts from residue 1, so it includes the signal peptide; also called HSPG2D1; perlecan domain 1; not shown: C-terminal His tag from the pcDNA 3.3+ vector
Experimental: We used biolayer inferometry (BLItz, Fortebio) to determine antibody binding kinetics specifically with purified HSPG2 domain 1. Ni-NTA biosensors were hydrated for 10 minutes in phosphate buffered saline. Following hydration, a 30 second baseline was established, followed by a 10-minute loading of the biosensor with 10 μg/mL HSPG2 domain 1 protein. The biosensor was then placed in PBS to establish baseline for 30 seconds. A two-step antibody association—dissociation cycle of 5 minutes each was then used to determine the kinetic association (kₐ) and dissociation (kd) rate constants. The equilibrium dissociation constant (KD) was calculated as KD=kd/kₐ
An important caveat with flow cytometry-based titration curves is the potential for avidity affects contributing to the binding, resulting in an ‘apparent KD’. Biophysical techniques are most often employed to generate the true, analytically relevant ‘intrinsic KD^{’} value. We chose biolayer interferometry as a means of assessing the kinetics of antibody-antigen binding with HSPG2D1.

B1: Tw1S4_6 IgG (antibody, V domains shown)
VH: EVQLLESGGGLVQPGGSLRLSCAASGFTFSSYAMSWVRQAPGKGLEWVSAIREDGIKTYYADSVKGRFTISRDNSKNTLYLQMNSLRAEDTAVYYCAKRARRFDYWGQGTLVTVS
VL: DIQMTQSPSSLSASVGDRVTITCRASQSISSYLNWYQQKPGKAPKLLIYNASLLQSGVPSRFSGSGSGTDFTLTISSLQPEDFATYYCQQSLRSPITFGQGTKVEIKR
Kd [1]: 125 to 275 nM
Kd [2]: 1790 nM
koff [2]: 0.0109 s⁻¹
kon [2]: 6140 M⁻¹ s⁻¹
